The numbers were not newly measured in publication PMC7751257, which cites them from elsewhere.

This series has as its target Spike RBD RBD (SARS-CoV-2) (UniProt P0DTC2).

For orientation: Kd means the equilibrium constant for the complex coming apart. As for “SBP1 α1 helix 23-mer (from UniProt Q9BYF1)”, the Kd is 47 nM.
